By Kd is commonly meant the equilibrium constant for the complex coming apart.

The values that follow come from paper PMC11906892.

In one series the target is ZER1 (ZYG11BL) (Homo sapiens, UniProt Q7Z7L7 520-766). Kind of series: ITC. On the technique in general: In ITC the heat of successive injections is recorded.
A further series addresses ZYG11B (Homo sapiens, UniProt Q9C0D3 445-728). Kind of series: ITC.

Sequence of ZYG11B (Q9C0D3 445-728): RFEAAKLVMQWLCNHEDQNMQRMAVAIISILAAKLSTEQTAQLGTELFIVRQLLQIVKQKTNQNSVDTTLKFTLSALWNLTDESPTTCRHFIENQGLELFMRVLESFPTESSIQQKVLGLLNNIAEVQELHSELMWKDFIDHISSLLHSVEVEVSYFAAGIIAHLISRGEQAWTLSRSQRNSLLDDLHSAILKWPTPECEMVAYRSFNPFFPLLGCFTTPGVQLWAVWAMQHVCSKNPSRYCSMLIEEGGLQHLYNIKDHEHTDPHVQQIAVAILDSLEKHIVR
Sequence of ZER1 (ZYG11BL) (Q7Z7L7 520-766): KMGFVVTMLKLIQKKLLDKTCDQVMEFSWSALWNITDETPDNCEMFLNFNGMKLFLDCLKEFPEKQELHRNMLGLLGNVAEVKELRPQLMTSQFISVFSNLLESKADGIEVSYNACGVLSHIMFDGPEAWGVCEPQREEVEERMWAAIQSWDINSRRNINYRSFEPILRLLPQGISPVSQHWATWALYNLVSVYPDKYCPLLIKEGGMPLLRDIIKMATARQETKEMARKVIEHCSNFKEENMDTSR

Consider TCACCCGGTTGGGGCACACGTCTTGTTGATGGCTGC (ssDNA) [Apt#Z6], for which the binding result with ZER1 (ZYG11BL) is on record as “no binding”. In the series with ZYG11B, this molecule returned a Kd of 4.69 ± 2.19 µM.
